Assay [1] addresses T1, HLA-A*02:01 loaded with MAGE-B6 homologue peptide, soluble biotinylated (human, UniProt P04439 25-299 at identity 0.94); P61769 21-119, biotinylated).
T1 construct: HLA monomer as for m1
Briefly: pHLA capture ELISA: biotinylated pHLA on neutravidin, scFv-phage, anti-M13 antibody detection [cont.) C].

Assay [2] concerns the target T2, HLA-A*02:01 loaded with MAGE-B4 homologue peptide, soluble biotinylated (human, UniProt P04439 25-299 at identity 0.94); P61769 21-119, biotinylated).
T2 construct: HLA monomer as for m1
The assay is described as above.

For assay [3], the target named is T3, HLA-A*02:01 loaded with MAGE-B10 homologue peptide, soluble biotinylated (human, UniProt P04439 25-299 at identity 0.94); P61769 21-119, biotinylated).
T3 construct: HLA monomer as for m1
Described as above.

In assay [4] the target is T4, HLA-A*02:01 loaded with MAGE-A9 homologue peptide, soluble biotinylated (human, UniProt P04439 25-299 at identity 0.94); P61769 21-119, biotinylated).
T4 construct: HLA monomer as for m1
The description is as above.

Assay [5] deals with T5, HLA-A*02:01 loaded with MAGE-A11 homologue peptide, soluble biotinylated (human, UniProt P04439 25-299 at identity 0.94); P61769 21-119, biotinylated).
T5 construct: HLA monomer as for m1
The assay is described as above.

In assay [6] the target is T6, HLA-A*02:01 loaded with MAGE-A3 homologue peptide, soluble biotinylated (human, UniProt P04439 25-299 at identity 0.94); P61769 21-119, biotinylated).
T6 construct: HLA monomer as for m1
The description is as above.

In assay [7] the target is T7, HLA-A*02:01 loaded with MAGE-A2 homologue peptide, soluble biotinylated (human, UniProt P04439 25-299 at identity 0.94); P61769 21-119, biotinylated).
T7 construct: HLA monomer as for m1
Described as above.

Assay [8] addresses T8, HLA-A*02:01 loaded with MAGE-A10 homologue peptide, soluble biotinylated (human, UniProt P04439 25-299 at identity 0.94); P61769 21-119, biotinylated).
T8 construct: HLA monomer as for m1
The assay is described as above.

The target in assay [9] is T9, HLA-A*02:01 loaded with MAGE-A1 homologue peptide, soluble biotinylated (human, UniProt P04439 25-299 at identity 0.94); P61769 21-119, biotinylated).
T9 construct: HLA monomer as for m1
The assay is described as above.

Assay [10] deals with T10, HLA-A*02:01 loaded with MAGE-B2 homologue peptide, soluble biotinylated (human, UniProt P04439 25-299 at identity 0.94); P61769 21-119, biotinylated).
T10 construct: HLA monomer as for m1
The description is as above.

The target in assay [11] is T11, HLA-A*02:01 loaded with MAGE-C2 homologue peptide, soluble biotinylated (human, UniProt P04439 25-299 at identity 0.94); P61769 21-119, biotinylated).
T11 construct: HLA monomer as for m1
The assay is described as above.

Assay [12] has as its target T12, HLA-A*02:01 loaded with MAGE-A12 homologue peptide, soluble biotinylated (human, UniProt P04439 25-299 at identity 0.94); P61769 21-119, biotinylated).
T12 construct: HLA monomer as for m1
The description is as above.

Assay [13] deals with T13, HLA-A*02:01 loaded with MAGE-A8 homologue peptide, soluble biotinylated (human, UniProt P04439 25-299 at identity 0.94); P61769 21-119, biotinylated).
T13 construct: HLA monomer as for m1
Nature of the assay: pHLA phage capture ELISA. (ELISA stands for enzyme-linked immunosorbent assay.)

Some results are limits rather than exact numbers.

B1: AM2 scFv displayed on phage (scFv)
scFv: QVQLVQSGAEVKKPGASVKVSCKVSGYTLTELSMHWVRQAPGKGLEWMGGFDPEDGETIYAQKFQGRVTMTEDTSTDTAYMELSSLRSEDTAVYYCATDQGSSWGFYWGQGTLVTVSSKLSGSASAPKLEEGEFSEARVDIRVTQSPSSLSASVGDRVTITCRASQNIMWYLNWYQQKPGKAPKLLIYAASSLQSGVPSRFSGSGSGTDFTLTISSLQPEDFATYYCQQSYSTPYTFGQGTKLEIK
notes: scFv on the surface of phage particles; also called AM2 phages
For the molecule B1, the binding result in assay [1], in [2], in assay [3], in assay [4], in [5] and in assay [6] was “no binding (tested: 10^9 phages/well)” throughout. Moreover, the binding result in [7], in [8], in assay [9], in assay [10], in [11] and in [12] was “no binding (tested: 10^9 phages/well)” throughout. In assay [13], the “fold reduction of binding as compared to binding to HLA-A*02:01/MAGE-A4^230-239” value is at least 2 fold.
